In experiment [1] the target is T1, human calcitonin receptor (human, UniProt P30988 25-474).
T1 construct: whole, on cells; Used as cell membranes; also called hCTR; hCT
T1 sequence (looked up): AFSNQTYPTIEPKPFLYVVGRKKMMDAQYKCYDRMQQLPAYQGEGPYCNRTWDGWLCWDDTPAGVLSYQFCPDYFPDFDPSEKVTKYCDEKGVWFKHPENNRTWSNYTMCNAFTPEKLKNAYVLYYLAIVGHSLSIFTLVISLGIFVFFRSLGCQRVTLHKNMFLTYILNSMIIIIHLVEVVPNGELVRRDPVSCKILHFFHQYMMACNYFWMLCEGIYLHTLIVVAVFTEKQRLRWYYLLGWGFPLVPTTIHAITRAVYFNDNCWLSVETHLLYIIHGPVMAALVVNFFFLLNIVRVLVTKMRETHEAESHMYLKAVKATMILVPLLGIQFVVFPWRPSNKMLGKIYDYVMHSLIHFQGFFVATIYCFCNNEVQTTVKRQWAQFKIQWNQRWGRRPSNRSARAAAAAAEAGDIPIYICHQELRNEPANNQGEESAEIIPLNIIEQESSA
Put plainly: ratio of hCTR IC50 to hAmylin-R IC50 (reference: human amylin receptor). The method, boiled down: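 Membranes (35 ng/μL final) + SPA beads, 50 mM Hepes pH 7.4 buffer with 1 mM CaCl2, 5 mM MgCl₂, 0.1% OA, 0.02% Tween20; 120 min, 25° C, shaking; centrifuged, counted; IC₅₀ by one-site binding competition.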

The target in experiment [2] is T1, human calcitonin receptor. Nature of the experiment: SPA competition on BHK cell membranes, 125I-calcitonin as radioligand (Assay VII). The method, boiled down:
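BHK hCTR membranes 35 ng/μL + SPA beads 0.05 mg/well; buffer 50 mM Hepes pH 7.4, 1 mM CaCl2, 5 mM MgCl₂, 0.1% OA, 0.02% Tween20. 120 min, 25° C., shaking. Scintillation count; IC50 by one-site binding competition.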

Results on five molecules are retold here after US20140087995A1 (published 2014).

Numbered stars: 1 amine (or outer) side, 2 acyl side, 3 side chain; on linkers, the order of the positions; unused ones are H or OH. Bridge positions count the residues as written; N and C are the ends. Side chains are listed from the residue outwards. Ends that are not written are not given here. * marks the point of attachment. C20 diacid = O=C(O)CCCCCCCCCCCCCCCCCCC(=O)*; γGlu = O=C(O)[C@H](CCC(=O)[*:2])N[*:1]

B1: N^ε1-[(4S)-4-carboxy-4-(19-carboxynonadecanoylamino)butanoyl]-[His14,Arg17,Pro21,Pro27,His35]-h-amylin (peptide)
peptide: K([γGlu-C20 diacid])CNTATCATQRLAHFLRHSSPNFGAIPSSTNVGSHTY-NH2
modifications: disulfide 2-7; N-terminus assumed
SMILES: CC[C@H](C)[C@H](NC(=O)[C@H](C)NC(=O)CNC(=O)[C@H](Cc1ccccc1)NC(=O)[C@H](CC(N)=O)NC(=O)[C@@H]1CCCN1C(=O)[C@H](CO)NC(=O)[C@H](CO)NC(=O)[C@H](Cc1c[nH]cn1)NC(=O)[C@H](CCCNC(=N)N)NC(=O)[C@H](CC(C)C)NC(=O)[C@H](Cc1ccccc1)NC(=O)[C@H](Cc1c[nH]cn1)NC(=O)[C@H](C)NC(=O)[C@H](CC(C)C)NC(=O)[C@H](CCCNC(=N)N)NC(=O)[C@H](CCC(N)=O)NC(=O)[C@@H](NC(=O)[C@H](C)NC(=O)[C@@H]1CSSC[C@H](NC(=O)[C@@H](N)CCCCNC(=O)CC[C@H](NC(=O)CCCCCCCCCCCCCCCCCCC(=O)O)C(=O)O)C(=O)N[C@@H](CC(N)=O)C(=O)N[C@@H]([C@@H](C)O)C(=O)N[C@@H](C)C(=O)N[C@@H]([C@@H](C)O)C(=O)N1)[C@@H](C)O)C(=O)N1CCC[C@H]1C(=O)N[C@@H](CO)C(=O)N[C@@H](CO)C(=O)N[C@H](C(=O)N[C@@H](CC(N)=O)C(=O)N[C@H](C(=O)NCC(=O)N[C@@H](CO)C(=O)N[C@@H](Cc1c[nH]cn1)C(=O)N[C@H](C(=O)N[C@@H](Cc1ccc(O)cc1)C(N)=O)[C@@H](C)O)C(C)C)[C@@H](C)O
notes: also called compound 66
Consider B1, for which the “Ratio hCT/hAmylin binding” value in experiment [1] came out at 45.5. Moreover, in experiment [2], the IC50 (usually the concentration needed to halve the response being measured) worked out at 18 nM.

B2: N^ε1-[(4S)-4-carboxy-4-(19-carboxynonadecanoylamino)butanoyl]-[His14,Arg17,Pro21,Pro27]-h-amylin (peptide)
peptide: K([γGlu-C20 diacid])CNTATCATQRLAHFLRHSSPNFGAIPSSTNVGSNTY-NH2
modifications: disulfide 2-7; N-terminus assumed
SMILES: CC[C@H](C)[C@H](NC(=O)[C@H](C)NC(=O)CNC(=O)[C@H](Cc1ccccc1)NC(=O)[C@H](CC(N)=O)NC(=O)[C@@H]1CCCN1C(=O)[C@H](CO)NC(=O)[C@H](CO)NC(=O)[C@H](Cc1c[nH]cn1)NC(=O)[C@H](CCCNC(=N)N)NC(=O)[C@H](CC(C)C)NC(=O)[C@H](Cc1ccccc1)NC(=O)[C@H](Cc1c[nH]cn1)NC(=O)[C@H](C)NC(=O)[C@H](CC(C)C)NC(=O)[C@H](CCCNC(=N)N)NC(=O)[C@H](CCC(N)=O)NC(=O)[C@@H](NC(=O)[C@H](C)NC(=O)[C@@H]1CSSC[C@H](NC(=O)[C@@H](N)CCCCNC(=O)CC[C@H](NC(=O)CCCCCCCCCCCCCCCCCCC(=O)O)C(=O)O)C(=O)N[C@@H](CC(N)=O)C(=O)N[C@@H]([C@@H](C)O)C(=O)N[C@@H](C)C(=O)N[C@@H]([C@@H](C)O)C(=O)N1)[C@@H](C)O)C(=O)N1CCC[C@H]1C(=O)N[C@@H](CO)C(=O)N[C@@H](CO)C(=O)N[C@H](C(=O)N[C@@H](CC(N)=O)C(=O)N[C@H](C(=O)NCC(=O)N[C@@H](CO)C(=O)N[C@@H](CC(N)=O)C(=O)N[C@H](C(=O)N[C@@H](Cc1ccc(O)cc1)C(N)=O)[C@@H](C)O)C(C)C)[C@@H](C)O
notes: also called compound 70
B2: the “Ratio hCT/hAmylin binding” value in experiment [1] is 60.8. Also, the IC50 in experiment [2] turned out to be 10.3 nM.

B3: N^ε1-[(4S)-4-carboxy-4-[[(4S)-4-carboxy-4-(19-carboxynonadecanoylamino)butanoyl]amino]butanoyl]-[Glu14,Arg17,Pro21,Pro27,Arg34]-h-amylin (peptide)
peptide: K([γGlu-γGlu-C20 diacid])CNTATCATQRLAEFLRHSSPNFGAIPSSTNVGRNTY-NH2
modifications: disulfide 2-7; N-terminus assumed
SMILES: CC[C@H](C)[C@H](NC(=O)[C@H](C)NC(=O)CNC(=O)[C@H](Cc1ccccc1)NC(=O)[C@H](CC(N)=O)NC(=O)[C@@H]1CCCN1C(=O)[C@H](CO)NC(=O)[C@H](CO)NC(=O)[C@H](Cc1c[nH]cn1)NC(=O)[C@H](CCCNC(=N)N)NC(=O)[C@H](CC(C)C)NC(=O)[C@H](Cc1ccccc1)NC(=O)[C@H](CCC(=O)O)NC(=O)[C@H](C)NC(=O)[C@H](CC(C)C)NC(=O)[C@H](CCCNC(=N)N)NC(=O)[C@H](CCC(N)=O)NC(=O)[C@@H](NC(=O)[C@H](C)NC(=O)[C@@H]1CSSC[C@H](NC(=O)[C@@H](N)CCCCNC(=O)CC[C@H](NC(=O)CC[C@H](NC(=O)CCCCCCCCCCCCCCCCCCC(=O)O)C(=O)O)C(=O)O)C(=O)N[C@@H](CC(N)=O)C(=O)N[C@@H]([C@@H](C)O)C(=O)N[C@@H](C)C(=O)N[C@@H]([C@@H](C)O)C(=O)N1)[C@@H](C)O)C(=O)N1CCC[C@H]1C(=O)N[C@@H](CO)C(=O)N[C@@H](CO)C(=O)N[C@H](C(=O)N[C@@H](CC(N)=O)C(=O)N[C@H](C(=O)NCC(=O)N[C@@H](CCCNC(=N)N)C(=O)N[C@@H](CC(N)=O)C(=O)N[C@H](C(=O)N[C@@H](Cc1ccc(O)cc1)C(N)=O)[C@@H](C)O)C(C)C)[C@@H](C)O
notes: also called compound 88
In the case of B3, the “Ratio hCT/hAmylin binding” value in experiment [1] is 46.5. Also, in experiment [2], the IC50 is 34.9 nM.

B4: N^ε1-[(4S)-4-carboxy-4-[[(4S)-4-carboxy-4-(19-carboxynonadecanoylamino)butanoyl]amino]butanoyl]-[Glu14,Arg17,Pro21,Pro27,His34,Glu35]-h-amylin (peptide)
peptide: K([γGlu-γGlu-C20 diacid])CNTATCATQRLAEFLRHSSPNFGAIPSSTNVGHETY-NH2
modifications: disulfide 2-7; N-terminus assumed
SMILES: CC[C@H](C)[C@H](NC(=O)[C@H](C)NC(=O)CNC(=O)[C@H](Cc1ccccc1)NC(=O)[C@H](CC(N)=O)NC(=O)[C@@H]1CCCN1C(=O)[C@H](CO)NC(=O)[C@H](CO)NC(=O)[C@H](Cc1c[nH]cn1)NC(=O)[C@H](CCCNC(=N)N)NC(=O)[C@H](CC(C)C)NC(=O)[C@H](Cc1ccccc1)NC(=O)[C@H](CCC(=O)O)NC(=O)[C@H](C)NC(=O)[C@H](CC(C)C)NC(=O)[C@H](CCCNC(=N)N)NC(=O)[C@H](CCC(N)=O)NC(=O)[C@@H](NC(=O)[C@H](C)NC(=O)[C@@H]1CSSC[C@H](NC(=O)[C@@H](N)CCCCNC(=O)CC[C@H](NC(=O)CC[C@H](NC(=O)CCCCCCCCCCCCCCCCCCC(=O)O)C(=O)O)C(=O)O)C(=O)N[C@@H](CC(N)=O)C(=O)N[C@@H]([C@@H](C)O)C(=O)N[C@@H](C)C(=O)N[C@@H]([C@@H](C)O)C(=O)N1)[C@@H](C)O)C(=O)N1CCC[C@H]1C(=O)N[C@@H](CO)C(=O)N[C@@H](CO)C(=O)N[C@H](C(=O)N[C@@H](CC(N)=O)C(=O)N[C@H](C(=O)NCC(=O)N[C@@H](Cc1c[nH]cn1)C(=O)N[C@@H](CCC(=O)O)C(=O)N[C@H](C(=O)N[C@@H](Cc1ccc(O)cc1)C(N)=O)[C@@H](C)O)C(C)C)[C@@H](C)O
As to B4, in experiment [1], the “Ratio hCT/hAmylin binding” value came to 29.1. For the same molecule, the IC50 in experiment [2] was 15.2 nM.

B5: N^ε1-[(4S)-4-carboxy-4-[[(4S)-4-carboxy-4-(19-carboxynonadecanoylamino)butanoyl]amino]butanoyl]-[Glu14,Arg17,Pro21,Pro27,Arg34,Glu35]-h-amylin (peptide)
peptide: K([γGlu-γGlu-C20 diacid])CNTATCATQRLAEFLRHSSPNFGAIPSSTNVGRETY-NH2
modifications: disulfide 2-7; N-terminus assumed
SMILES: CC[C@H](C)[C@H](NC(=O)[C@H](C)NC(=O)CNC(=O)[C@H](Cc1ccccc1)NC(=O)[C@H](CC(N)=O)NC(=O)[C@@H]1CCCN1C(=O)[C@H](CO)NC(=O)[C@H](CO)NC(=O)[C@H](Cc1c[nH]cn1)NC(=O)[C@H](CCCNC(=N)N)NC(=O)[C@H](CC(C)C)NC(=O)[C@H](Cc1ccccc1)NC(=O)[C@H](CCC(=O)O)NC(=O)[C@H](C)NC(=O)[C@H](CC(C)C)NC(=O)[C@H](CCCNC(=N)N)NC(=O)[C@H](CCC(N)=O)NC(=O)[C@@H](NC(=O)[C@H](C)NC(=O)[C@@H]1CSSC[C@H](NC(=O)[C@@H](N)CCCCNC(=O)CC[C@H](NC(=O)CC[C@H](NC(=O)CCCCCCCCCCCCCCCCCCC(=O)O)C(=O)O)C(=O)O)C(=O)N[C@@H](CC(N)=O)C(=O)N[C@@H]([C@@H](C)O)C(=O)N[C@@H](C)C(=O)N[C@@H]([C@@H](C)O)C(=O)N1)[C@@H](C)O)C(=O)N1CCC[C@H]1C(=O)N[C@@H](CO)C(=O)N[C@@H](CO)C(=O)N[C@H](C(=O)N[C@@H](CC(N)=O)C(=O)N[C@H](C(=O)NCC(=O)N[C@@H](CCCNC(=N)N)C(=O)N[C@@H](CCC(=O)O)C(=O)N[C@H](C(=O)N[C@@H](Cc1ccc(O)cc1)C(N)=O)[C@@H](C)O)C(C)C)[C@@H](C)O
Take B5: the “Ratio hCT/hAmylin binding” value in experiment [1] came to 14.7. Moreover, the half-maximal inhibitory concentration (IC50) in experiment [2] is 14.1 nM.
